Patent US20250051476A1 (ABDERA THERAPEUTICS, published 2025)
Where two headings read alike, the source gives them in different places. Each block holds one binder with its values, some of them ahead of it.

Columns and labels:
human DLL3 on cells = biological target: T1, human DLL3 on cells (human, UniProt Q9NYJ7 27-618); test: cell-based or functional assay
T1 sequence (looked up): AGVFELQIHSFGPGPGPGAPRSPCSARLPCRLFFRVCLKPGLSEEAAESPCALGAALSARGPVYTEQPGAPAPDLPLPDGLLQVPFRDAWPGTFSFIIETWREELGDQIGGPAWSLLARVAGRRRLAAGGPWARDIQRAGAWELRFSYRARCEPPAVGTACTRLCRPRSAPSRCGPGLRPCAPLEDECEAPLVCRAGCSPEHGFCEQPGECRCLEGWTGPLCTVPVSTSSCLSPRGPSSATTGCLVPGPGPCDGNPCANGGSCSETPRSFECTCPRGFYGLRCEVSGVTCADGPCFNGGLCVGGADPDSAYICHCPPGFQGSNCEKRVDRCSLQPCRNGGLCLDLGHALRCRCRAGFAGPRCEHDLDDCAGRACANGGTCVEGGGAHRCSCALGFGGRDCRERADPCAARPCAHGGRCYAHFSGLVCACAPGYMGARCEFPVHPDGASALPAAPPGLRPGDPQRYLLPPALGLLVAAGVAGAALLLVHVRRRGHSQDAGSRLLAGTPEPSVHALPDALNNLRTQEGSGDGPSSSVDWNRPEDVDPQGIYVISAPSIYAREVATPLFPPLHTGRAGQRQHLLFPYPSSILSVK

[1] = biological target: T2, hDLL3 EGF1-6 (aa 216-492) fused to mIgG2a CH2-CH3 Fc (human); test: ELISA on coated hDLL3 EGF1-6-mIgG2a Fc (2 ug/ml), anti-hIgG-Fc-HRP, A450
T2 construct: also called DLL3 EGF1-6(mIgG2aCH2-CH3); hDLL3 EGF domain construct
T2 chain: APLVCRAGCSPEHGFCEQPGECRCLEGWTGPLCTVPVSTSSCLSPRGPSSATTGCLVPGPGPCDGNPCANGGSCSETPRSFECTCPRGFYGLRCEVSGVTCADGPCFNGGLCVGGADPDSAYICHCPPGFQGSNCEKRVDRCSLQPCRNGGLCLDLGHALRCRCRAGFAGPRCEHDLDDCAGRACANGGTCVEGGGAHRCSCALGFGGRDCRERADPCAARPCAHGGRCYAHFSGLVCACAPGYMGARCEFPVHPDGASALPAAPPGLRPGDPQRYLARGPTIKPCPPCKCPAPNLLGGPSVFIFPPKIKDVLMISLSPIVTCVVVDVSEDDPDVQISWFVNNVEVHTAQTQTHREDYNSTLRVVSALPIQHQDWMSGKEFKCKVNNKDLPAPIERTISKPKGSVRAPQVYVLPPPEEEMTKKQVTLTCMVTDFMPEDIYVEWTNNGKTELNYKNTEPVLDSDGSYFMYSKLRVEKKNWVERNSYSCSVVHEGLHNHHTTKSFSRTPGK

[2] = biological target: T3, DLL3 on cells (SHP-77, NCI-H82, HEK-DLL3, membrane proteome array cells) (human, UniProt Q9NYJ7 27-618); test: flow cytometry on SHP-77 cells, Geomeans RL1-H
T3 construct: whole, on cells; also called hDLL3
T3 sequence (looked up): T1 sequence (looked up)

mouse DLL3 = biological target: T4, mouse DLL3 (mouse, UniProt O88516 25-477, limits assumed); test: ELISA
T4 construct: also called mDLL3; murine DLL3
T4 sequence (looked up): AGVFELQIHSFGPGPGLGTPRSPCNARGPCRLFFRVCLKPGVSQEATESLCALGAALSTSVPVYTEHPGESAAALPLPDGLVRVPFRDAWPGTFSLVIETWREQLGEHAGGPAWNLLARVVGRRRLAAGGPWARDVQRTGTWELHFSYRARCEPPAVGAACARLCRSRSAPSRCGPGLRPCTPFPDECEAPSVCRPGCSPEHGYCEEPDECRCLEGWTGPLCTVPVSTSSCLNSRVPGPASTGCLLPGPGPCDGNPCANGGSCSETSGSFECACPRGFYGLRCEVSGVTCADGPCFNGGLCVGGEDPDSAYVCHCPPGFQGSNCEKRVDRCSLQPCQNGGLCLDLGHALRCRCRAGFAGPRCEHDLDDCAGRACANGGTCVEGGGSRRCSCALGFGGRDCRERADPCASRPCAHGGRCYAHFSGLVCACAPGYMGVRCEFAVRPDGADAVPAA

[3] = biological target: T5, DLL3 EGF1-6(mIgG2aCH2-CH3) (human); test: Octet BLI, VHH-Fc captured on AHC sensor, DLL3 EGF1-6-mIgG2a Fc titrated
T5 construct: also called hDLL3 EGF domain construct; DLL3 EGF1-6 domain
T5 chain: T2 chain

[4] = biological target: T3, DLL3 on cells (SHP-77, NCI-H82, …); test: flow cytometry on SHP-77 cells, Geomeans RL1-H; remark: listed apart in the source

B5: Clone 100 VHH-Fc with H435Q Fc (Fc fusion)
chain: QVQLVESGGGSVQPGGSLRLSCAASGIVFNSDVMGWYRQVPGKPRELVATITGGGSTNYATSVKGRFTISRDNAKNTVYLQMNSLRPEDTAVYYCNGRRGDSMLAFWAQGTQVTVSSAPELLGGPSVFLFPPKPKDTLMISRTPEVTCVVVDVSHEDPEVKFNWYVDGVEVHNAKTKPREEQYNSTYRVVSVLTVLHQDWLNGKEYKCKVSNKALPAPIEKTISKAKGQPREPQVYTLPPSREEMTKNQVSLTCLVKGFYPSDIAVEWESNGQPENNYKTTPPVLDSDGSFFLYSKLTVDKSRWQQGNVFSCSVMHEALHNQYTQKSLSLSPG
H435Q-Fc SHP-77 Internalization FOI (human DLL3 on cells): 1.19 FOI

B6: Clone 107 VHH-Fc with H435Q Fc (Fc fusion)
chain: QVQLVESGGGLVQAGDSLRLSCVASDRTFSSYAVGWFRQAPGKEREFVAAISWNGGRTLYTDSVTGRFTISRDNAKSTVYLQMNGLKPEDTAVYYCAARPAAPTRRLEYDYWGQGTQVTVSSAPELLGGPSVFLFPPKPKDTLMISRTPEVTCVVVDVSHEDPEVKFNWYVDGVEVHNAKTKPREEQYNSTYRVVSVLTVLHQDWLNGKEYKCKVSNKALPAPIEKTISKAKGQPREPQVYTLPPSREEMTKNQVSLTCLVKGFYPSDIAVEWESNGQPENNYKTTPPVLDSDGSFFLYSKLTVDKSRWQQGNVFSCSVMHEALHNQYTQKSLSLSPG
H435Q-Fc SHP-77 Internalization FOI (human DLL3 on cells): 1.27 FOI

B8: Clone 24 VHH-Fc with H435Q Fc (Fc fusion)
chain: QVQYVESGGGLVQPGGSLRLSCAASGFTFSSYRINWYRQPPGKGRELVGSITDTGSTNYADSVKGRFTISRDNAKNTVYLQMSSLKPEDTAVYYCRAPTIAAYWGQGTQVTVSSAPELLGGPSVFLFPPKPKDTLMISRTPEVTCVVVDVSHEDPEVKFNWYVDGVEVHNAKTKPREEQYNSTYRVVSVLTVLHQDWLNGKEYKCKVSNKALPAPIEKTISKAKGQPREPQVYTLPPSREEMTKNQVSLTCLVKGFYPSDIAVEWESNGQPENNYKTTPPVLDSDGSFFLYSKLTVDKSRWQQGNVFSCSVMHEALHNQYTQKSLSLSPG
H435Q-Fc SHP-77 Internalization FOI (human DLL3 on cells): 1.19 FOI

B9: 126_zu2 (Fc fusion)
chain: QVQLVESGGGLVQPGGSLRLSCAASGITFSMYSMSWFRQAPGQGLELVAATTTFGSTNYADSVKGRFTISRDNSKNTLYLQMNSLRAEDTAVYYCAARFTSEEYWGQGTLVTVSSEPKSSDKTHTCPPCPAPEAEGAPSVFLFPPKPKDTLMISRTPEVTCVVVDVSHEDPEVKFNWYVDGVEVHNAKTKPREEQYNSTYRVVSVLTVLHQDWLNGKEYKCKVSNKALPSSIEKTISKAKGQPREPQVYTLPPSREEMTKNQVSLTCLVKGFYPSDIAVEWESNGQPENNYKTTPPVLDSDGSFFLYSKLTVDKSRWQQGNVFSCSVMHEALHNQYTQKSLSLSPG
notes: Humanized VHH-Fc
EC50 (read off the curve) [2]: ~0.1 nM | binding result (mouse DLL3): no binding | binding result [3]: no binding | EC50 (read off the curve) [4]: ~0.07 nM

B10: 107_zu2 (Fc fusion)
chain: QVQLVESGGGLVQPGGSLRLSCAASDRTFSSYAVGWFRQAPGQGLEFVAAISWNGGRTLYTDSVTGRFTISRDNSKNTLYLQMNSLRAEDTAVYYCAARPAAPTRRLEYDYWGQGTLVTVSSEPKSSDKTHTCPPCPAPEAEGAPSVFLFPPKPKDTLMISRTPEVTCVVVDVSHEDPEVKFNWYVDGVEVHNAKTKPREEQYNSTYRVVSVLTVLHQDWLNGKEYKCKVSNKALPSSIEKTISKAKGQPREPQVYTLPPSREEMTKNQVSLTCLVKGFYPSDIAVEWESNGQPENNYKTTPPVLDSDGSFFLYSKLTVDKSRWQQGNVFSCSVMHEALHNQYTQKSLSLSPG
notes: Humanized VHH-Fc
EC50 (read off the curve) [2]: ~0.2 nM | Kd [3]: 5.04 nM | koff [3]: 0.000513 s⁻¹ | kon [3]: 102000 M⁻¹ s⁻¹ | EC50 (read off the curve) [4]: ~0.2 nM

Further lines, results first:

H435Q-Fc SHP-77 Internalization FOI (human DLL3 on cells): 1.18 FOI
B1: Clone 186 VHH-Fc with H435Q Fc (Fc fusion)
chain: QVQVVESGGGLVQPGGSLTLSCAASGFDFSTYTVNWYRQAPGKEREKVARISSTGTTTNYANSAKGRFTLSRDNAKNRVYLQMNNLKPEDTAVYFCNFERFDSNYWGQGTQVTVSSAPELLGGPSVFLFPPKPKDTLMISRTPEVTCVVVDVSHEDPEVKFNWYVDGVEVHNAKTKPREEQYNSTYRVVSVLTVLHQDWLNGKEYKCKVSNKALPAPIEKTISKAKGQPREPQVYTLPPSREEMTKNQVSLTCLVKGFYPSDIAVEWESNGQPENNYKTTPPVLDSDGSFFLYSKLTVDKSRWQQGNVFSCSVMHEALHNQYTQKSLSLSPG

binding result [1]: binds
B2: 100 (Fc fusion)
VHH-Fc chain: QVQLVESGGGSVQPGGSLRLSCAASGIVFNSDVMGWYRQVPGKPRELVATITGGGSTNYATSVKGRFTISRDNAKNTVYLQMNSLRPEDTAVYYCNGRRGDSMLAFWAQGTQVTVSS
notes: same clone as 1.m44, 2.m24, 3.m26, 3.m53, 4.m7; also called Clone 100

binding result [1]: binds
B3: 107 (Fc fusion)
VHH-Fc chain: QVQLVESGGGLVQAGDSLRLSCVASDRTFSSYAVGWFRQAPGKEREFVAAISWNGGRTLYTDSVTGRFTISRDNAKSTVYLQMNGLKPEDTAVYYCAARPAAPTRRLEYDYWGQGTQVTVSS
notes: same clone as 1.m45, 2.m28, 3.m30, 3.m55, 4.m13

H435Q-Fc SHP-77 Internalization FOI (human DLL3 on cells): 1.19 FOI
B4: Clone 126 VHH-Fc with H435Q Fc (Fc fusion)
chain: QVQLVESGGGMVQPGGSLRLSCAASGITFSMYSMSWYRQPPGKQRELVAATTTFGSTNYADSVKGRFTISRDNAKNTVYLQMNSLKPEDTAVYLCNARFTSEEYWGQGTQVTVSSAPELLGGPSVFLFPPKPKDTLMISRTPEVTCVVVDVSHEDPEVKFNWYVDGVEVHNAKTKPREEQYNSTYRVVSVLTVLHQDWLNGKEYKCKVSNKALPAPIEKTISKAKGQPREPQVYTLPPSREEMTKNQVSLTCLVKGFYPSDIAVEWESNGQPENNYKTTPPVLDSDGSFFLYSKLTVDKSRWQQGNVFSCSVMHEALHNQYTQKSLSLSPG

binding result [1]: no binding (tested: 100 nM)
B7: 126 (parental VHHFc of Example 41) (Fc fusion)
chain: QVQLVESGGGMVQPGGSLRLSCAASGITFSMYSMSWYRQPPGKQRELVAATTTFGSTNYADSVKGRFTISRDNAKNTVYLQMNSLKPEDTAVYLCNARFTSEEYWGQGTQVTVSS
notes: Parental VHHFc; not shown: hinge and Fc

binding result [1]: binds
B11: 24 (Fc fusion)
VHH-Fc chain: QVQYVESGGGLVQPGGSLRLSCAASGFTFSSYRINWYRQPPGKGRELVGSITDTGSTNYADSVKGRFTISRDNAKNTVYLQMSSLKPEDTAVYYCRAPTIAAYWGQGTQVTVSS
notes: same clone as 1.m43, 2.m5, 3.m7, 3.m51, 4.m1; also called Clone 24
